This is an account of results in US20260055142A1, “PHARMACEUTICAL USE OF POLYPEPTIDE IN PREPARATION OF DRUGS FOR TREATING AND/OR PREVENTING DIABETES AND OBESITY AND RELATED DISEASES THEREOF” (GUANGDONG RAYNOVENT BIOTECH CO., LTD., priority 2022, published 2026).

Like-named read-outs stand apart in the source and are kept apart here. Positions of bridges follow the written chain, without caps; N, C: chain ends. Non-standard residues stand in square brackets, D forms with d. No end group written: not given here. Ida bridge carrying fatty‑acid side chain of Intermediate A‑1 = not defined here; Aib = CC(C)(N)C(=O)O

On the set-up of series [1]: species or system SD rats. The note with it: rat, in vivo, sc, 0.048 mg/kg. How it is done: To test the pharmacokinetic profiles of the compounds in SD rats. The pharmacokinetic characteristics in rodent animals following subcutaneous injection of the compounds were tested using standard protocols. In the experiment, the candidate compounds were formulated into clear solution, which was administered to the rats by single subcutaneous injection (SC, 0.048 mpk). The vehicle for injection was citrate buffer solution (20 mM, pH=7). The whole blood was collected and processed to get the plasma. The drug concentration was analyzed by LC-MS/MS, and the pharmacokinetic parameters were calculated using Phoenix WinNonlin software.

On the set-up of series [2]: species or system Cynomolgus macaques. The note with it: cynomolgus monkey, in vivo, sc, 0.02 mg/kg. How it is done: To test the pharmacokinetic profiles of the compounds in Cynomolgus macaques. The pharmacokinetic characteristics in mammals following intravenous injection and subcutaneous injection of the compounds were tested using standard protocols. In the experiment, the candidate compounds were formulated into clear solution, which was administered to Cynomolgus macaques by single subcutaneous injection (SC, 0.02 mpk). The vehicle for subcutaneous injection was citrate buffer solution (20 mM, pH=7). The whole blood was collected and processed to get the plasma. The drug concentration was analyzed by LC-MS/MS, and the pharmacokinetic parameters were calculated using Phoenix WinNonlin software.

Details of series [3]: species or system C57BL/6 mice. The note with it: mouse, in vivo, sc, 0.048 mg/kg. As for the experimental part: To test the pharmacokinetic profiles of the compounds in C57BL/6 mice. The pharmacokinetic characteristics in rodent animals following subcutaneous injection of the compounds were tested using standard protocols. In the experiment, the candidate compounds were formulated into clear solution, which was administered by subcutaneous injection (SC, 0.048 mpk). The vehicle for subcutaneous injection was citrate buffer solution (20 mM, pH=7). The whole blood was collected and processed to get the plasma. The drug concentration was analyzed by LC-MS/MS, and the pharmacokinetic parameters were calculated using Phoenix WinNonlin software.

Series [4] relates to human plasma albumin. The format is in vitro ADME. As for the experimental part:
(§1) To study the binding of the test compounds to human/mouse plasma albumin. • 1. Blank matrix preparation: On the day of the experiment, the plasma was thawed in cold water and centrifuged at 3220 rpm for 5 min to remove all the blood clots. The pH of the resulting plasma was measured and adjusted to 7.4±0.1 with 1% phosphoric acid or 1 N sodium hydroxide as desired. • 2. Dilution of the test compounds: the test compounds were dissolved in dimethyl sulfoxide (DMSO) to prepare stock solutions of 10 mM and 2 mM, respectively. 2 μL of the stock solution (2 mM) was diluted with 98 μL of DMSO to obtain a working solution of 40 μM. 10 μL of the stock solution was diluted with 240 μL of DMSO to obtain a working solution of control compounds of 400 μM. A working solution of the compounds (5 μL) was mixed evenly with a blank matrix (995 μL) at a ratio of 1:200 to prepare a loading matrix. • 3. Analytical procedure • 3.1 Equal amounts of 30 μL of the loading matrix (n=2) were transferred into a sample collection plate to prepare Time 0 (T0) samples for residue determination. The samples were immediately matched with corresponding blank buffer to a final volume of 60 μL, with a volume ratio of plasma (the loading matrix) to buffer being 1:1 in each well. Then, into the TO samples of the test compounds were respectively added 60 μL of 4% H3PO4 in H2O and 480 μL of stop solution containing internal standard. They were then stored at 2° C. to 8° C. together with other samples for further treatment. • 3.2 The remaining plasma samples were pre-incubated in a carbon dioxide incubator at 37±1° C. for 30 min. Protein-free samples (F samples) were prepared. Matrix-loaded samples (230 μL) were all transferred into polycarbonate tubes (n=2) and ultracentrifuged at 37° C. and 155,000×g (35000 rpm) for 4 h. • 3.3 To prepare T samples (test samples), an additional matrix-containing sample was transferred into a separate 96-well plate (sample incubation plate) and incubated at 37° C. for 4 h. • 3.4 At the end of centrifugation, 30 μL of protein-free samples (F samples) and 30 μL of T samples were taken from the second layer (beneath the upper layer) of the supernatant and transferred into a new sample collection plate. Each sample was mixed with corresponding blank buffer or matrix to a final volume of 60 μL, and the blank matrix:buffer volume ratio is 1:1. Into all the samples were added 60 μL of 4% H3PO4 solution in water and 480 μL of stop solution containing internal standard. The mixture was centrifuged at 4000 rpm for 20 min. 100 μL of supernatant for each sample was taken for LC-MS/MS analysis.

Series [5] relates to mouse plasma albumin. Type of series: in vitro ADME. How it is done:
as §1

The target of series [6] is GLP-1R (UniProt P43220 24-463, limits assumed). Description: cell-based or functional assay.
In series [7] the target is T1, GIPR (UniProt P48546 22-466, limits assumed).
T1 sequence (looked up): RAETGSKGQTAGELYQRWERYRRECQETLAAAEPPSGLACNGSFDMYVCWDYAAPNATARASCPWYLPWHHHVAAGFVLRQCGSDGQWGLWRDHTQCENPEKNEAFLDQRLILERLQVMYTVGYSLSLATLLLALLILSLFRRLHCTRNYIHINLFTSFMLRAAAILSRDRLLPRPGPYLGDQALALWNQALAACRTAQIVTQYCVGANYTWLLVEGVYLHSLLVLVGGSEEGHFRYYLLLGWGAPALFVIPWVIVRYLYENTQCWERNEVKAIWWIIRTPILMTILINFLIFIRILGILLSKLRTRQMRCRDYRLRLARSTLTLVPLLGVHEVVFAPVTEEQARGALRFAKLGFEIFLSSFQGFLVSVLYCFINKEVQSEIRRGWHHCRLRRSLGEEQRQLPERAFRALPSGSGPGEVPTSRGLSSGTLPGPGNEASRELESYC
Description: cell-based or functional assay.

`CC[C@H](C)[C@H](NC(=O)[C@H](CC(C)C)NC(=O)[C@H](Cc1c[nH]c2ccccc12)NC(=O)[C@H](CCC(=O)O)NC(=O)[C@@H](NC(=O)[C@H](Cc1ccccc1)NC(=O)[C@H](CCC(=O)O)NC(=O)[C@@H]1CCCCNC(=O)CN(C(=O)COCCOCCNC(=O)COCCOCCNC(=O)CC[C@H](NC(=O)CCCCCCCCCCCCCCCCCCC(=O)O)C(=O)O)CC(=O)NCCCC[C@H](NC(=O)[C@H](CCCCN)NC(=O)[C@H](CC(=O)O)NC(=O)[C@H](CC(C)C)NC(=O)C(C)(C)NC(=O)[C@@H](NC(=O)[C@H](CO)NC(=O)[C@H](Cc2ccc(O)cc2)NC(=O)[C@H](CC(=O)O)NC(=O)[C@H](CO)NC(=O)[C@@H](NC(=O)[C@H](Cc2ccccc2)NC(=O)[C@@H](NC(=O)CNC(=O)[C@H](CCC(=O)O)NC(=O)C(C)(C)NC(=O)[C@@H](N)Cc2ccc(O)cc2)[C@@H](C)O)[C@@H](C)O)[C@@H](C)CC)C(=O)N[C@@H](C)C(=O)N[C@@H](CCC(N)=O)C(=O)N1)C(C)C)C(=O)N[C@@H](C)C(=O)NCC(=O)NCC(=O)N1CCC[C@H]1C(=O)N[C@@H](CO)C(=O)N[C@@H](CO)C(=O)NCC(=O)N[C@@H](C)C(=O)N1CCC[C@H]1C(=O)N1CCC[C@H]1C(=O)N1CCC[C@H]1C(=O)N[C@@H](CO)C(N)=O` [WX-009]: the AUC(0-t) (as a rule, exposure summed from dosing to a finite time, without extrapolation to infinity) in series [1] amounted to 1.09 µM·h; in series [2] it was 4.74 µM·h; in series [3], 1.99 µM·h. Further, the half-life (as a rule, the time in which the quantity being followed falls by half) is 21 h in series [1], 105 h in series [2] and 17 h in series [3]. Besides, the “PPB % unbound (H)” value in series [4] is “NA/NA”. The “PPB % unbound (M)” value in series [5] is reported as “NA/NA”.

Take `CC[C@H](C)[C@H](NC(=O)[C@H](CC(C)C)NC(=O)[C@H](Cc1c[nH]c2ccccc12)NC(=O)[C@H](CCC(=O)O)NC(=O)[C@@H](NC(=O)[C@H](Cc1ccccc1)NC(=O)[C@H](C)NC(=O)[C@@H]1CCCCNC(=O)CN(C(=O)COCCOCCNC(=O)COCCOCCNC(=O)CC[C@H](NC(=O)CCCCCCCCCCCCCCCCCCC(=O)O)C(=O)O)CC(=O)NCCCC[C@H](NC(=O)[C@H](CCCCN)NC(=O)[C@H](CC(=O)O)NC(=O)[C@H](CC(C)C)NC(=O)C(C)(C)NC(=O)[C@@H](NC(=O)[C@H](CO)NC(=O)[C@H](Cc2ccc(O)cc2)NC(=O)[C@H](CC(=O)O)NC(=O)[C@H](CO)NC(=O)[C@@H](NC(=O)[C@H](Cc2ccccc2)NC(=O)[C@@H](NC(=O)CNC(=O)[C@H](CCC(=O)O)NC(=O)C(C)(C)NC(=O)[C@@H](N)Cc2ccc(O)cc2)[C@@H](C)O)[C@@H](C)O)[C@@H](C)CC)C(=O)N[C@@H](C)C(=O)N[C@@H](CCC(N)=O)C(=O)N1)C(C)C)C(=O)N[C@@H](C)C(=O)NCC(=O)NCC(=O)N1CCC[C@H]1C(=O)N[C@@H](CO)C(=O)N[C@@H](CO)C(=O)NCC(=O)N[C@@H](C)C(=O)N1CCC[C@H]1C(=O)N1CCC[C@H]1C(=O)N1CCC[C@H]1C(=O)N[C@@H](CO)C(N)=O` [WX-005]: the “PPB % unbound (H)” value in series [4] is recorded as “NA/NA”. Further, the “PPB % unbound (M)” value in series [5] is listed as “NA/NA”.

B1: polypeptide compound WX-001 (peptide)
peptide: Y[Aib]EGTFTSDYSI[Aib]LDKIAQKAFVKWLIAGGPSSGAPPPS-NH2
modifications: linker 20-24 via Ida bridge carrying fatty‑acid side chain of Intermediate A‑1; reading uncertain
With B1, in series [6], the “EC50, cAMP assay, (+) 1% HSA” value came out at 16600 pM; the “EC50, cAMP assay, (-) 1% HSA” value came out at 59.6 pM; the “Ratio (EC50 (+) 1% HSA over (-) 1% HSA)” value was found to be 279. Also, in series [7], the “EC50, cAMP assay, (+) 1% HSA” value is 16000 pM; the “EC50, cAMP assay, (-) 1% HSA” value was 324 pM; the “Ratio (EC50 (+) 1% HSA over (-) 1% HSA)” value is 49.3.

B2: polypeptide WX-005 (peptide)
peptide: Y[Aib]EGTFTSDYSI[Aib]LDKKAQKAFVEWLIAGGPSSGAPPPS-NH2
modifications: linker 17-20 via Ida; also: Ida bridge carries fatty-acid side chain of Intermediate A-1
With B2, in series [6], the “EC50, cAMP assay, (+) 1% HSA” value stood at 7630 pM; the “EC50, cAMP assay, (-) 1% HSA” value was 36 pM; the “Ratio (EC50 (+) 1% HSA over (-) 1% HSA)” value came to 212. In series [7], the “EC50, cAMP assay, (+) 1% HSA” value was found to be 19300 pM; the “EC50, cAMP assay, (-) 1% HSA” value came to 160 pM; the “Ratio (EC50 (+) 1% HSA over (-) 1% HSA)” value was 121.

B3: polypeptide WX-009 (peptide)
peptide: Y[Aib]EGTFTSDYSI[Aib]LDKKAQKEFVEWLIAGGPSSGAPPPS-NH2
modifications: linker 17-20 via Ida bridge carrying fatty‑acid side chain of Intermediate A‑1; reading uncertain
With B3, the entries for the “EC50, cAMP assay, (-) 1% HSA” value in series [6] and in series [7] were 14 pM and 74 pM, respectively.

B4: polypeptide WX-010 (peptide)
peptide: Y[Aib]EGTFTSDYSI[Aib]LDKKAQKAFVEWLIAGGPSSGAPPPS-NH2
modifications: bridge 17-20; not fully specified (bridges); also: Glu bridge amino group carries fatty-acid side chain of Intermediate A-1
B4: the “EC50, cAMP assay, (-) 1% HSA” value in series [6] was determined as 17 pM; in series [7] it was 140 pM.
